According to patent US6906033 (dated 2005):
Like-named read-outs stand apart in the source and are kept apart here.

T1: human factor Xa (human, UniProt P00742 41-179; P00742 235-488)
T1 chain 1: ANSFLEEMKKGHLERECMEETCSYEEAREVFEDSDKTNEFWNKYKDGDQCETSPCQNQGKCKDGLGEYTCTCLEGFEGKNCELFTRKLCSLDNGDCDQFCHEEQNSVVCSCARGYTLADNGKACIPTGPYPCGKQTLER
T1 chain 2: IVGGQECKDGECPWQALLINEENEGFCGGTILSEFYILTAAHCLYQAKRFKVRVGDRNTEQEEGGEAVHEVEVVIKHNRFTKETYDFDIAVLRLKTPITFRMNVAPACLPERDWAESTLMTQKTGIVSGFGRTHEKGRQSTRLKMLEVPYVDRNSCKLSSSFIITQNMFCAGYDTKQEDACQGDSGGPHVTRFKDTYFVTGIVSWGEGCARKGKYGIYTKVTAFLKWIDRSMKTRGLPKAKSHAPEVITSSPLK

T2: human factor XIIa (human, UniProt P00748 20-615, biotinylated with Biotin Ester (Zymed); sites not stated)
T2 chain: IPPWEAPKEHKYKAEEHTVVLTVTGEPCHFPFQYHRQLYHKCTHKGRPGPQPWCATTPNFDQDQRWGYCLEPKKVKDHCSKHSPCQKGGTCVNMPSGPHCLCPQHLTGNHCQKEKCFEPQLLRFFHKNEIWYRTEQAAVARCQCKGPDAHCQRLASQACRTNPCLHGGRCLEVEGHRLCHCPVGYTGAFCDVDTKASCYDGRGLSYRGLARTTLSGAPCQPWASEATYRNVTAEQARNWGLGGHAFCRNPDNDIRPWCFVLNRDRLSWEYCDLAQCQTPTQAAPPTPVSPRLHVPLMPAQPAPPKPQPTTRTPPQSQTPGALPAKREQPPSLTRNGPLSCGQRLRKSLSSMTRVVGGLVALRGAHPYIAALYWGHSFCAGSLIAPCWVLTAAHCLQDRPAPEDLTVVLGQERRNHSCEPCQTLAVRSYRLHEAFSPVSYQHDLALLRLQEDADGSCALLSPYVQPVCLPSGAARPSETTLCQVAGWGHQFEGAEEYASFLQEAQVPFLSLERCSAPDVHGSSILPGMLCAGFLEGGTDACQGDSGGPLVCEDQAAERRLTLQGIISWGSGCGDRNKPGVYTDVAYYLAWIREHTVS


Experiments:
Experiment in all cases: enzyme inhibition
human plasma kallikrein [1] = target: T3, human plasma kallikrein (human, UniProt P03952 20-638)
human factor Xa [2] = target: T1, human factor Xa
human plasma kallikrein [3] = target: T3, human plasma kallikrein; remark: listed apart in the source
human plasma kallikrein [4] = target: T3, human plasma kallikrein; remark: listed apart in the source
human factor XIIa [5] = target: T2, human factor XIIa
human plasma kallikrein [6] = target: T3, human plasma kallikrein; remark: listed apart in the source
human factor Xa [7] = target: T1, human factor Xa
human factor XIIa [8] = target: T2, human factor XIIa
human factor XIIa [9] = target: T2, human factor XIIa

T3 sequence (P03952 20-638): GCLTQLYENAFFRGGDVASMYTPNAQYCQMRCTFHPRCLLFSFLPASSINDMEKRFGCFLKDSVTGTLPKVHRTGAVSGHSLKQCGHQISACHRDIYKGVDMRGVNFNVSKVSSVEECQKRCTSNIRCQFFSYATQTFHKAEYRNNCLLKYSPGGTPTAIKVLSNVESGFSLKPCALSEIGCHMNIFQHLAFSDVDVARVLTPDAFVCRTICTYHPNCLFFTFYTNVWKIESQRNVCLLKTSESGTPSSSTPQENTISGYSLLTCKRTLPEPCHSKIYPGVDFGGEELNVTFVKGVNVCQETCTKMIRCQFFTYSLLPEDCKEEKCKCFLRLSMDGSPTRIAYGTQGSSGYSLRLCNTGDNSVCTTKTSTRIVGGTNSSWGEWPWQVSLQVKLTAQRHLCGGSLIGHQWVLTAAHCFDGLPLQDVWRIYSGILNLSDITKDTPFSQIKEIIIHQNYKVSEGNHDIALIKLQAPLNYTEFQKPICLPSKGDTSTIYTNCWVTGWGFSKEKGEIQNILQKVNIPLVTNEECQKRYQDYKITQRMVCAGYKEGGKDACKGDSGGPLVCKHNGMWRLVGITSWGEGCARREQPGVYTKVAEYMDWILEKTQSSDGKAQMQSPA

Binder | Ki (human plasma kallikrein [1]) [nM] | Ki (human factor Xa [2]) [nM] | Ki (human factor XIIa [5]) [nM] | other results
TW116 (protein) EVCSEQAETGPCRAMIIRWYFDVTEGKCAPFFYGGCGGNRNNFDTEEYCMAVCGSAI | 145 | 806 | – | –
TW101 (protein) EVCSEQAETGPCKAMISRWYFDVTEGKCAPFFYGGCGGNRNNFDTEEYCMAVCGSAI | – | – | – | Ki (human plasma kallikrein [3]): 2000 nM
TW106 (protein) EVCSEQAETGPCRARISRWYFDVTEGKCAPFFYGGCGGNRNNFDTEEYCMAVCGSAI | – | – | – | Ki (human plasma kallikrein [3]): 560 nM
TW124 (protein) EVCSEQAETGPCRAMISRWYFDVTEGKCAPFFYGGCGGNSNNFDTEEYCMAVCGSAI | – | – | – | Ki (human plasma kallikrein [4]): 64 nM
TW6163 (protein) EVVREVCSEQAETGPCRAMHSRWYFDVTEGKCAPFFYGGCGGNRNNFDTEEYCMAVCGSAI | 4.7 | 457 | 4530 | –
DD128 (protein) EVVREVCSEQAETGPCRAMISLWYFDVTEGKCAPFFYGGCGGNRNNFDTEEYCMAVCGSAI | – | – | – | Ki (human plasma kallikrein [6]): 44 nM; Ki (human factor Xa [7]): 37 nM
DD103 (protein) EVVREVCSEQAETGPCRAMIFRWYFDVTEGKCAPFFYGGCGGNRNNFDTEEYCMAVCGSAI | 17 | 110 | 2130 | –
DD100 (protein) EVVREVCSEQAETGPCRAMISRWYFDVTEGKCAPFFYGGCCGNRNNFDTEEYCMAVCGSAI | – | – | – | Ki (human plasma kallikrein [6]): 15 nM
TW6172 (protein) EVVREVCSEQAETGPCRAMASRWYFDVTEGKCAPFFYGGCGGNRNNFDTEEYCMAVCGSAI | 315 | 1460 | – | –
AL301 (protein) EVVREVCSEQAETGPCRAMISRWYFDVTEGKCAPFLYGGCGGNRNNFDTEEYCMAVCGSAI | – | – | – | Ki (human factor XIIa [8]): 1560 nM; Ki (human plasma kallikrein [6]): 216 nM
TW6181 (protein) EVVREVCSEQAETGPCRAMKSRWYFDVTEGKCAPFFYGGCGGNRNNFDTEEYCMAVCGSAI | 150 | – | 1510 | –
TW6148 (protein) EVVREVCSEQAETGPCRAMISRWYFDVTEGKCAPFFYGGCGGARNNFDTEEYCMAVCGSAI | – | – | – | Ki (human plasma kallikrein [4]): 40 nM
TW6158 (protein) EVVREVCSEQAETGPCRAMISRWYFDVTEGKCAPFFYGGCTGNRNNFDTEEYCMAVCGSAI | – | – | – | Ki (human plasma kallikrein [6]): 29 nM
CL006 (protein) EVVREVCSEQAETGPCRAMISAWYFDVTEGKCAPFFYGGCGGNRNNFDTEEYCMAVCGSAI | 110 | 133 | 89600 | –
TW6140 (protein) EVVREVCSEQAETGPCRAMISRWYFDVTEGKCAPFFYGGCNGNRNNFDTEEYCMAVCGSAI | – | – | – | Ki (human factor XIIa [8]): 475 nM; Ki (human plasma kallikrein [6]): 35 nM
TW6194 (protein) EVVREVCSEQAETGPCRAMIERWYFDVTEGKCAPFFYGGCGGNRNNFDTEEYCMAVCGSAI | 70.8 | – | – | –
TW6180 (protein) EVVREVCSEQAETGPCRAMFSRWYFDVTEGKCAPFFYGGCGGNRNNFDTEEYCMAVCGSAI | 70 | 39 | 885 | –

Binder | Ki (human plasma kallikrein [1]) [nM] | Ki (human factor Xa [2]) [nM] | Ki (human factor XIIa [5]) [nM] | other results
TW6141 (protein) EVVREVCSEQAETGPCRAMISRWYFDVTEGKCAPFFYGGCQGNRNNFDTEEYCMAVCGSAI | – | – | – | Ki (human plasma kallikrein [6]): 42 nM
TW6165 (protein) EVVREVCSEQAETGPCRAAIWRWYFDVTEGKCAPFFYGGCGGNRNNFDTEEYCMAVCGSAI | – | – | – | Ki (human factor XIIa [9]): 206 nM
TW6168 (protein) EVVREVCSEQAETGPCRAMILRWYFDVTEGKCAPFFYGGCGGNRNNFDTEEYCMAVCGSAI | 25.8 | 395 | 3520 | –
TW6182 (protein) EVVREVCSEQAETGPCRAMIHRWYFDVTEGKCAPFFYGGCGGNRNNFDTEEYCMAVCGSAI | 36 | – | 752 | –
BG012 (protein) EVVREVCSEQAETGPCRAMISTWYFDVTEGKCAPFFYGGCGGNRNNFDTEEYCMAVCGSAI | – | 116 | 40 | –
BG001 (protein) EVVREVCSEQAETGPCRAMLSRWYFDVTEGKCAPFFYGGCGGNRNNFDTEEYCMAVCGSAI | 38 | 204 | 489 | –
TW6149 (protein) EVVREVCSEQAETGPCRAMISRWYFDVTEGKCAPFFYGGCGGNANNFDTEEYCMAVCGSAI | – | – | – | Ki (human plasma kallikrein [4]): 54 nM
TW6211 (protein) EVVREVCSEQAETGPCRAMISKWYFDVTEGKCAPFFYGGCGGNRNNFDTEEYCMAVCGSAI | – | – | – | Ki (human factor XIIa [8]): 402 nM; Ki (human plasma kallikrein [6]): 184 nM
DD111 (protein) EVVREVCSEQAETGPCRASISRWYFDVTEGKCAPFFYGGCGGNRNNFDTEEYCMAVCGSAI | – | – | – | Ki (human plasma kallikrein [3]): 5.6 nM
AL302 (protein) EVVREVCSEQAETGPCRAMISRWYFDVTEGKCAPFGYGGCGGNRNNFDTEEYCMAVCGSAI | – | – | – | Ki (human plasma kallikrein [6]): 39 nM; Ki (human factor Xa [7]): 316 nM
DD104 (protein) EVVREVCSEQAETGPCRAMIYRWYFDVTEGKCAPFFYGGCGGNRNNFDTEEYCMAVCGSAI | 15 | 345 | 237 | –
TW6166 (protein) EVVREVCSEQAETGPCRAAIYRWYFDVTEGKCAPFFYGGCGGNRNNFDTEEYCMAVCGSAI | – | – | – | Ki (human factor XIIa [9]): 73 nM
DD102 (protein) EVVREVCSEQAETGPCRAMIPRWYFDVTEGKCAPFFYGGCGGNRNNFDTEEYCMAVCGSAI | 16 | – | 315 | –
TW6155 (protein) EVVREVCSEQAETGPCRAMISRWYFDVTEGKCAPFFYGGCMGNRNNFDTEEYCMAVCGSAI | – | – | – | Ki (human plasma kallikrein [6]): 11 nM; Ki (human factor Xa [7]): 27 nM
BG028 (protein) EVVREVCSEQAETGPCRALIYRWYFDVTEGKCAPFFYGGCGGNRNNFDTEEYCMAVCGSAI | – | – | – | Ki (human factor XIIa [9]): 93.8 nM
DD105 (protein) EVVREVCSEQAETGPCRAMIWRWYFDVTEGKCAPFFYGGCGGNRNNFDTEEYCMAVCGSAI | 18 | 320 | 198 | –
TW6210 (protein) EVVREVCSEQAETGPCRAMIQRWYFDVTEGKCAPFFYGGCGGNRNNFDTEEYCMAVCGSAI | 54 | – | 277 | –
